Data from a protein production outcome set (Wang et al. 2014).

Assay: label from the status in PepcDB records

Row | Sequence | protein production
1 | MSDNNDRMYELEYPSPEVSGQTAGGPTLIVALQGYADAGHAVESSSSHLMDALDHRLIASFNNDELIDYRSRRPVVVIEHNEVTSMDELNLGLHVVRDNDNKPFLMLSGPEPDLRWGDFSNAVVDLVEKFGVENTICLYAAPMTVPHTRPTVVTAHGNSTDRLKDQVSLDTRMTVPGSASLMLEKLLKDKGKNVSGYTVHVPHYVSASPYPAATLKLLQSIADSADLNLPLLALERDAEKVHRQLMEQTEESSEIQRVVGALEQQYDSE | not failed
2 | MTAGGPLITAALTAYDAEDTIAGALASALAQDWPSLEVLILDDASRDGTRKVIEAVITERGDQGPPIRLIALDKNGGVAQARNRLLAEAKGEVIAFFDDDDISAPDRLRRQYARLIAAERETGAGLVFCHAARCQILPDGGERLEGTMGEEGGPIPGGDAVVRRILLGTLSPGVRGSCATCSQMARTASYRALGGFDPTLRRAEDTDLCLRAALGGAVFAGLSAPLVTQRLTLGGDKTPREDHRAYQALLNKHRATLAKTGWLTFYARWQDIRLAHLEGRTGRVVLGLVGLGLSHPLKLARKIVWSLPAAGTRAAYHRQHRKDTS | failed
3 | MTIWLLQLVLVIALCNLCGRLAERLGQCAVVGEIAAGLLLGPSLFGVIAPSFYDLLFGPRTLSAMAQVGEVGLILLMFQIGLHMELSETLRGKRWRIPVAIAAGGLIAPAAIGMIVAIVSKDTLASDVPALPYILFCGVALAVSAVPVMARIIDDLALGAMVGARHAMSAAMLTDALGWMLLATIASLSSGPGWAFAHMLVSLLVYLVLCALLVRFVVRPVLARLASTAHATRDRLAVLLCFVIASALATSLIGFHSAFGALAAALFVRRVPGVAKEWRDNVEGFVKLVLMPVFFACAGLHASVGTIDDAASWMWCGVFLVGGFIGKFGGSYLGARGTGLAPHDAMLASSLMNTRGLMELIVLSIGLQMQILPPKVYTILVVFALVTTALTAPLVRFTLRMQTRAMSQQAA | failed
4 | MASEMKFAWLLAPDTYWDEKKTFITAALESGIDHIVDTADSGRIKKLGNLTLISPDEDADIVLVGRDGEGDGTLELPETLEYSRDIEMASELSESGRQVAAYVEIRSKAHEELARRLGRVVDYLILVGEDWKIIPLENIIADLQEEDVKLIAAVADVDEARVALETLEHGTDGVLIEPADISQIKDIAALLENIESETYELKPATITRIEPIGSGDRVCVDTCSIMGIGEGMLVGSYSQGLFLVHSESLESEYVASRPFRVNAGPVQAYVMVPGGRTRYLSELETGDEVIIVDRDGRSRSAIVGRVKIEKRPLMLVEAEYEGMKVRTLLQNAETIRLVNDKGEPVSVSELGEGDRVLVYFDESARHFGMAIKETIIEKLEHHHHHH | not failed
5 | MVAKDYPFYLTVKRANCSLEAPLGSGVAKDEEPSNKRVKPLSRVTSLANLIPPVKTTPLKRFSQTLQRSISFRSESRPDILAPRAWSRNATSSSTKRRDSKLWSETFDVCVNQVLTAKEIKRQEAIFELSQGEEDLIEDLKLAKKAYHDPMLKLSIMTEQELNQIFGTLDSLIPLHEELLSQLRDVRKPDGSTEHVGPILVGWLPCLSSYDSYCSNQVAAKALLDHKKQDHRVQDFLQRCLESPFSRKLDLWNFLDIPRSRLVKYPLLLREILRHTPNDNPDQQHLEEAINIIQGIVAEINTKTGESECRYYKERLLYLEEGQKDSLIDSSRVLCCHGELKNNRGVKLHVFLFQEVLVITRAVTHNEQLCYQLYRQPIPVKDLTLEDLQDGEVRLGGSLRGAFSNNERVKNFFRVSFKNGSQSQTHSLQANDTFNKQQWLNCIRQAKETVLSAAGQAGLLDSEGLVQGPGTENREPQGETKLEQMDQSDSESDCSMDTSEVSLECERMEQTDASCANSRPEESV | not failed
6 | MEKKANHGDDVQESVPIIHSQVVKIKREFEKIQHPSLKQPEMPLVFREIMGPRRSRSPLGLGERERSIPVGN | failed
7 | MMSSSTTTLVDAVASPQAQQAVYIGLVNPKTPTNVGGIMRASGCYGVDAVFYTGKRYEYAARGPQQYNADTQSAAERIPLTGVTSLLDAIPAGTQLVCVDLVLGATPLPEFVHPERAFYVFGPEDGTIGQEIIDRADAVVYVPTVGCMNLAASVNVLLYDRLAKTYRKQATNEAEFDGDALIRTSRDNNNRTRVKTTKRESSK | failed
8 | MTINWIQAAILGLFACLCSNSCMAGQAVGNYTIGRPLVGGLVCGIILGDLKLGIACGVAMQLVYIALVTPGGTVSADVRAISYIGIPLAMVAISTKGLDPLGGSAADLAKSVGTLVGTIGTVLFYSVAALNLVWQSFGWKDIKKGKLDHLYAINFGWPWISHLLFSFLPTVILTYFGATAVTAMRDALPMDGLAMKTLFTVGGMLPCVGIAILLRQIVNKNIDFVPFFVGFTLAASLKLNLVSITIIALLFAVIFYKIALIKNNTKLVDSTGSLTNDDEEEDI | failed
